Laboratory results published in the DeepSol protein solubility set.

Assay: soluble on expression in E. coli; label from the status in PepcDB or PDB records

| Sequence | soluble on expression in E. coli |
| --- | --- |
| MARLFTLSESKYYLMALDAGTGSIRAVIFDLEGNQIAVGQAEWRHLAVPDVPGSMEFDLNKNWQLACECMRQALHNAGIAPEYIAAVSACSMREGIVLYNNEGAPIWACANVDARAAREVSELKELHNNTFENEVYRATGQTLALSAIPRLLWLAHHRSDIYRQASTITMISDWLAYMLSGELAVDPSNAGTTGLLDLTTRDWKPALLDMAGLRADILSPVKETGTLLGVVSSQAAELCGLKAGTPVVVGGGDVQLGCLGLGVVRPAQTAVLGGTFWQQVVNLAAPVTDPEMNVRVNPHVIPGMVQAESISFFTGLTMRWFRDAFCAEEKLIAERLGIDTYTLLEEMASRVPPGSWGVMPIFSDRMRFKTWYHAAPSFINLSIDPDKCNKATLFRALEENAAIVSACNLQQIADFSNIHPSSLVFAGGGSKGKLWSQILADVSGLPVNIPVVKEATALGCAIAAGVGAGIFSSMAETGERLVRWERTHTPDPEKHELYQDSRDKWQAVYQDQLGLVDHGLTTSLWKAPGL | not soluble |
| MGFHLRGLGGSLKPLPFSTMYLEATGKSIEADLRTVFARDPKLSVMSEPKGAQAVVSVVSENQSKDILTINTGGRINEYQLTYTVVVRTVIGGVPVDPDMVVTVRRSLNYSDNQVLGKQQEEDLLWADARRDAAEQIVRRLAYLKVPAAPLAGPVSVKPDAVPQPLEHHHHHH | soluble |
| MSLANLFESHSPAGPLANRMRPQSLDEIVGQRHLIGESTLLRRAILADRLGTVIFYGPPGTGKTTLARVISSYTKSAFEQLNAVTAKLDQLREVLKAAESRLQFDQQKTILFLDEIHRFNKMQQDALLPALEAGTITLIGATTENPSFEVNAALLSRATVFRFETPTTEDLRVVLHRTLHDTERGLGKYPITVTEEAVDHYVKLSDGDYRALLNALELAVLTTPEIDGEITIDLSVAEESIQQKALKYDKDGDRHYDVISAFIKSIRGSDPDAALYWLAVMIEAGESPRFIVRRLYVHAAEDIGMSDPQALLIVDACARACEYIGFPEARIPLAETVLYLATAPKSNTVITAIDQALELVRRSDGGPVPPHLRDAHHAGAAALGNGVEYQYPHQFPHAYVKQNYWPENLARTKPVFYKPSPRGFEKQLQARLDFWKKQEGHHHHHH | soluble |
| MSQPIYKRILLKLSGEALQGEDGLGIDPAILDRMAVEIKELVEMGVEVSVVLGGGNLFRGAKLAKAGMNRVVGDHMGMLATVMNGLAMRDSLFRADVNAKLMSAFQLNGICDTYNWSEAIKMLREKRVVIFSAGTGNPFFTTDSTACLRGIEIEADVVLKATKVDGVYDCDPAKNPDAKLYKNLSYAEVIDKELKVMDLSAFTLARDHGMPIRVFNMGKPGALRQVVTGTEEGTTICLEHHHHHH | not soluble |
| MKVRILGSGTSTGVPQIGCTCPVCTSADPKDNRLRASAIVETEDARILIDCGPDFRAQVLHLPFEKIDGVLITHEHYDHVGGLDDLRPFCRFGAVPIYAEEYVARALRLRMPYCFVDHRYPGVPDIPLQEIEVGHAFSIHHTEVVPLRVMHGRLPILGYRIGRLGYITDMLTMPEESYEQLEGIDVLIMNALRIAPHPTHQNLEEALKVAERIRAKETYFIHMSHDMGLHKKVEKELPENIHLTYDGMEIIF | not soluble |
| MNKKTIQDLIPKAMQAIEGVGIVGKDKKFEKVHEGYINALGPTIIQSGLLPTLIFYNKDKRELWLKALYYMEIISNDIDPTAIIQLIIKEGDSESRQEKTLKELEPKAKEWERKILEYAVALKLALRTFVAKESETGNTEQQKGGAQ | not soluble |
| DSPPSESLPSADSNRTHIVNGVGAFQSKVHPSIVTVLYFPGPVTSAISSDDQSFETSIVGHSVVIRPAPNVTAKTVGNINITTRAMNVSLTMRIAERPEDAATQLVFRALSEVEAFETRVAAEVERVRQEVEHEYERRHRNLEREVTHATEQAIARRMLMRHEGREFGAIARNEHNIIARVTRAQWIGPELYLYFEIQNRDSTPYHLAHVRLLGPTGESDHVDHLEFAGAGDVIDGSLGTVLSGQRGRGIVHVRDAARFAGKPFTFLVSEARERRAVSIGGITW | not soluble |
| MSLRLLPQPQQCVLAKGYFIVGKMQLSTPVLSQEWKQFVTEMGGTLTDQSASSINIKLVDAIDNVSVNKEEAYRLTITPKAITVEAVAERGVYWAMQTLYQLKEEKGKKNRLQCATITDWPAFRIRGFMQDVGRSYLSLEELKREIAILSRFKINTFHWHLTENQAWRLESKIFPMLNDSTNMTRMAGKYYTLEEARELTEFCKAHQVLLIPEIDMPGHSAAFIRTFRHDMQSPEGMKILKLLLDEICETFDVPYLHIGTDEVHFTNPQFVPEMVAYVRDKGKKVISWNPGWKYKAGEIDMMQLWSYRGKAQQGIPAIDSRFHYLNHFDTFGDIIALYNSRIYNADMGSDDLAGVIMGIWNDRLIDKEWNMVLENNFYPNMLAIAERSWRGGGTEYFDKQGTILPVDENSEVFRNFEDFESRMLWYKEHLFKGYPFAYVKQTHVKWNITDAFPNEGDLTKVFPPEEELKDSYTYEGKQYGVRPAIGAGIYLRHVWGKIVPAFYKDPQENHTAYAYTYVYSSKTQEVGLWAEFQNYGRSENDLPPLPGKWDYKESRIWINDQEILPPVWSATHLVKSSETALGNENCVARPPLRVHLHKGWNKVLLKLPVGKFSTNEVRLVKWMFTAVFVTPDGDKAVEGLIYSPEKEGHHHHHH | soluble |
| MSLTMPVNTIMGLFAKSPIKPLQRHVVCVNECCSHLINFFEVCNKGDWEKAGEIRAQISHLEKEADVLKREIRLKLPRGLFMPVDRSDMLELLTQQDKLANLAKDIAGRVYGRQLVIPEPLQENFIAYVRRCLDAANQAQNVINELDELLETGFKGREVTLVAEMIHQLDVIEDDTDSMQIRLRQQLMAIESKMNPIDVMFLYKILEWVGGIADQAQRVGARLELMLSRSEGHHHHHH | soluble |
| MCGGRGTRLDTKVEKPLFRIGGVPMVGRVVGALEDSAVERIIAATSPNAPETQSCLDVPCIETPGEGYVADLNAALNDDRLSQPVLTVAADLPLLDGEIVDRVLDEHNGGSLTVLVPASLKRALGVSDDTTFDNGGREVAPTGVNVVSDGPDDAWLTRDRRVAVNVNTLADARVAEQWLLEHHHHHH | not soluble |
| MTKNDNTIFKDIYQLWFTQYKQTVKESTWVTTQRLFRLHILPIFSDYRIAKISIKDCQKAINQWFNAGLAKYHTLMNYVAKVLDYAINIDLISENPAKRVIVPVNKNDRSLEHHHHHH | soluble |
| SKGWGWLALLLGVLLGTAWARRSQDLHCGACRALVDELEWEIARVDPKKTIQMGSFRINPDGSQSVVEVPYARSEAHLTELLEEVCDRMKEYGEQIDPSTHRKNYVRVVSRNGESSELDLQGIRIDSDISGTLKFACESIVEEYEDELIEFFSREADNVKDKLCSKRTDLCDHALHRSHDEL | soluble |
| MGPHSMRYFETAVSRPGLEEPRYISVGYVDNKEFVRFDSDAENPRYEPRAPWMEQEGPEYWERETQKAKGQEQWFRVSLRNLLGYYNQSAGGSHTLQQMSGCDLGSDWRLLRGYLQFAYEGRDYIALNEDLKTWTAADMAAQITRRKWEQSGAAEHYKAYLEGECVEWLHRYLKNGNATLLRTDSPKAHVTHHPRSKGEVTLRCWALGFYPADITLTWQLNGEELTQDMELVETRPAGDGTFQKWASVVVPLGKEQNYTCRVYHEGLPEPLTLRWEPPPST | soluble |
| MGSDKIHHHHHHMNFAMTPEEAKTNEAYCRALIELLYQLADDDYIVAYRGSEWLGLAPHIEEDVAFSSITQNTMGHAVMFYELLEQLGEGDADTLAHERDPALRRNSVYLEKKNGSGTYLDEPHYDWALTVIRHFFYETFKKIRLEALTQSSYVPLAKAAQRVLMEQPYHLAHWKTWLCQLQQSTEEAKNRLMERIDEAWLEILDMLELGLKGGEMVEYQLITDEATIQQQWVKEMNKSLFYVPSQSLQKQEGNGRNGEHTDDLQQALSTCSEVYNSDRHAVW | not soluble |
| MDESEPVRQIYDHKDLAEFLESSAFQDIWDFVERLNCSVRGLSGDALAGPRVPATSLVTAELAALKELAAEVELLPAETGRFGNRAFRTWFSQLQERTPRFTEELLVKSDQTKRYGPDLQAYFLGAFGDPMRIDYGTGHEASFLLFMFCLHRLHLFRAEDFPELVLSVFPAYLATTRYLQQRFTLEPAGSHGVWGLDDYVFLPFLFGSSQLIGKDTEVPPVAARDRELVLELAPKYLYFDTIRFILETKRGPFAEHSPTLYDISGLENWSRINAGLLRMYKAEVWSKLPVIQHIPFGILIPFRSAARTSTERLPAGS | not soluble |
| MFQALLTKLKNNAALGAAANNLNKFRSSNLGNQRRSVSVAVTSTSPKSEKPVAREHMIYDETHFVMQKSLGKLIEEKINPNVAKWEQDGRYPAHLVFKMLGDHGVFGVNKPEAFGGTGTDIAMATAIAEQMGAINCGSIPMSVMVQTDMSTPALAQFGSDALRERFLRPSITGDLVSSLAVSEPHAGSDVSAVHTHARRQGSDLIINGSKMWITNGGQADWACVLVNTSNTSNVHKNKSLVCVPLDAVGVHRSTPLDKLGMRSSDTVQLFFEDVRVPSSYIIGEEGRGFGYQMKQFNDERLVTVAVGLLPLQKCIDETIEYARDRLLFGKTLLDQQYIQFQLAELEAELEATRALLYRTVLARSRGDDVSMLTAMAKLKIGRLARAITDQCLQVWGGAGYLNENGISRAFRDFRLFSIGAGCDEVMMRIIHKAQSRRQLKKA | not soluble |
| MPVAISLPTSSTSHFFPRRRGHANHRYQRFSGAQSSTEDPYIRKNQTGVIIIGAGLAGLAAANQLTSKRIPFLLLEASDGVGGRVRTDIVDGFFLDRGFQIFITAYPEAKKLLDYEALDLQRFYAGAKVFYGGKFHTVADPLRHFWDSVASLANPIGSVVDKGLIALTRARVLIKSDEEILTAADEVPTIDLLRKIGFSETILDRFFRPFFGGIFFDRDLETTSKLFDFVFRCLALGENTLPAMGIGEISNQLAAKLPAKSVLLNTRVASIEYPNGSGSDPPSVRLQDGSVMKAELGVIIAVEQPEVNKLLDGIRDPVITKPARSTICLYFTAEPNQIPVQDPVLFLNGSNSGIINNMFFATNVARTYAPPGKALVSVSLIGLFEDRTDDDLAAEVLRELSGWFGESPVMSWKHLKTYRIQFAQPNQCPPTDLVKSPRVGSGLYLSGDYMTSATFDGALVSGRRAVEVLLRETGLIK | soluble |
| MGSDKIHHHHHHLYTYLQYIQSSVQTDVGFCVDGAKNLENMYESTKAVGSGPVKRQAGYGASSPSRASGSHPAPSPYDAASTSSSSSSDSCCSCGIGLAGPAGFPGRPGRDGIDGPAGKPGRDGQDLDGESSSDGSQIELDCPAGPPGPPGNPGPQGNSGRPGMDGMPGRNGRCGRPGEQGERGPNGEDGRPGRRGDDGMPGTVNEIPGQAGPPGLRGAPGATGSQGPRGNDGRPGNKGPAGPPGDQGFDGAPGGPGADGEPGAQGPLGAKGECSHCPPPRTAPGY | not soluble |
| MGHHHHHHSHMVLLHVKRGDESQFLLQAPGSTELEELTVQVARVYNGRLKVQRLCSEMEELAEHGIFLPPNMQGLTDDQIEELKLKDEWGEKCVPSGGAVFKKDDIGRRNGQETSGSRCLCYHGDGERCLGPASRRGDDCLPHGVATV | not soluble |
| MGARQRMVASKGAVLSMLMDAYQKRDRVGLIAFKGDSAELLLPPTSSIELAQKYLQEMPTGGKTPISRGLVKGYEIIKSELRRDPDTCPFMVLISDGRANVSMNGEPPLHEIITIASRLKEEGIQSAVIDTESSMIKFGFAQQISTALGATYLTLENLKADSIVNAVRASAPFEIMMHPGVSSV | not soluble |
